Test results published in PMC5241339.
pKd: −log10 of the molar value. “And” between values parts separate entries of the source, which are not always exact repeats. Equal values may be shown once.

Legend:
[1] = molecular target: receptor for advanced glycation endproducts (RAGE) on CHO-RAGE cells (UniProt Q15109); assay: radioligand binding; CHO cell lines incubated with [18F]FB-rS100A12 in PBS++ for 90 min at 37 °C, lysed, gamma counter, % ID per protein; blocking with 15-fold excess of rS100A12 or anti-CD36 antibody FA6-152 added 20 min before
receptor for advanced glycation endproducts (RAGE) on CHO-RAGE cells, sequence (Q15109 23-404): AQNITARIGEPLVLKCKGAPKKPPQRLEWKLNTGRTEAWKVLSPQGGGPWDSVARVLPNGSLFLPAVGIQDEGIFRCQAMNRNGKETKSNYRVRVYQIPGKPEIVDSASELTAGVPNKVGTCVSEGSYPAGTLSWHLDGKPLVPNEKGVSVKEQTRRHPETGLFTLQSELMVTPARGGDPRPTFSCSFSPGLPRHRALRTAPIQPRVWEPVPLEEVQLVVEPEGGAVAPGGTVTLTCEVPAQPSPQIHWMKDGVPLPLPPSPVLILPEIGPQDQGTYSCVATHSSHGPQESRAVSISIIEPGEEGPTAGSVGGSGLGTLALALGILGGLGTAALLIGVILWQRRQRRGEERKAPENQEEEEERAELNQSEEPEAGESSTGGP

CD36 on CHO-CD36 cells [2] = molecular target: CD36 on CHO-CD36 cells (UniProt P16671); assay: as above
CD36 on CHO-CD36 cells, sequence (P16671 whole entry): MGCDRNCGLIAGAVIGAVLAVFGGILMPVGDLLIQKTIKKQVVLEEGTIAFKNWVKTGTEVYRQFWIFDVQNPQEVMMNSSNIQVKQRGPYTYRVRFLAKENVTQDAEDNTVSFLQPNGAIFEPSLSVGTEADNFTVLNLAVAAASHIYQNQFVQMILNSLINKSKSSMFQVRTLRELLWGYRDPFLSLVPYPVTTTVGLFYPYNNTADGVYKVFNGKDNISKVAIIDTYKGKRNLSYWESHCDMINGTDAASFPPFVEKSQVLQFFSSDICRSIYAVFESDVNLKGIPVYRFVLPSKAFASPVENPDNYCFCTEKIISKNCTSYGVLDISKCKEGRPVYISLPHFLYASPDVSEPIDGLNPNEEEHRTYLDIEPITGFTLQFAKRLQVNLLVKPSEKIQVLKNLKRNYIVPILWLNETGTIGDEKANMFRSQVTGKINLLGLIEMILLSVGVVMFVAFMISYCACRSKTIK

[3] = molecular target: receptor for advanced glycation endproducts (RAGE) on CHO-RAGE cells (UniProt Q15109); assay: cell binding of a fluorescent tracer (fluorescence of cell lysates, plate reader); CHO cell lines in 24-well plates incubated with 10 µM fluorescein-rS100A12 for 90 min at 37 °C, lysed, fluorescence per protein; blocking with anti-CD36 antibody FA6-152 10 µg/mL, 30 min before
CD36 on CHO-CD36 cells [4] = molecular target: CD36 on CHO-CD36 cells (UniProt P16671); assay: as above
[5] = molecular target: CD36 (His-tagged recombinant human protein, Sino Biological, Life technologies, 70-80 kDa) (human) (UniProt P16671); assay: SPR; Biacore T100; CD36 immobilized by amine coupling on a C1 chip (1000 RU); S100A12 species as analyte 0.62-50.0 nM, single cycle kinetics, 30 µL/min, 25 °C; HBS-P+ with 350 µM CaCl2; two-state reaction model
CD36 (His-tagged recombinant human protein, Sino Biological, Life technologies, 70-80 kDa) (human), sequence (P16671 30-439): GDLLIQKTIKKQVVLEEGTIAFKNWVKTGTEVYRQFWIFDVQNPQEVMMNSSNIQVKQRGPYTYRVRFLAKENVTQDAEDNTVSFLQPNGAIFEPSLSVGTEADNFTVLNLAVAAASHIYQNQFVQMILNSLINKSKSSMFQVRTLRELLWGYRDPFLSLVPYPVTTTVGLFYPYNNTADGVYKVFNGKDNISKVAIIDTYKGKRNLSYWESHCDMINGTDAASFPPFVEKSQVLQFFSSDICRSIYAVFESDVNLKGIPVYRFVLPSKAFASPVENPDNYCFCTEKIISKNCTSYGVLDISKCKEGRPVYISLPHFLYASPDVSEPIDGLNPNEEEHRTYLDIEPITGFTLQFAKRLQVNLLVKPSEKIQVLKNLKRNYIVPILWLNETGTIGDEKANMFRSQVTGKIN

4-[18F]fluorobenzoyl-rS100A12 ([18F]FB-rS100A12) (natural protein), sequence (P80511 2-92): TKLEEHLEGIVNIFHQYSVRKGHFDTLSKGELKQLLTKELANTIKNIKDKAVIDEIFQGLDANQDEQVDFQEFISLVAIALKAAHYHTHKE

Row | cell association higher than in CHO-K1 cells [1] [%] | cell association higher than in CHO-K1 cells (CD36 on CHO-CD36 cells [2]) [%] | binding higher than in CHO-K1 cells [3] [%] | binding higher than in CHO-K1 cells (CD36 on CHO-CD36 cells [4]) [%] | pKd [5] | Substance
1 | 40 | 20 |  |  |  | 4-[18F]fluorobenzoyl-rS100A12 ([18F]FB-rS100A12) (natural protein)
2 |  |  | 50 | 30 | 8.32 | fluorescein-labeled rS100A12 (natural protein)
3 |  |  |  |  | 9.17 and 9.00 | recombinant S100A12 (rS100A12) (natural protein)
